Source: a protein production outcome set (Wang et al. 2014)

Assay: label from the status in PepcDB records

MAKHRLDALLVERGLCPSRQQAQRLIRAGEVRVAQAIVDKPGSLVAEDAVIEVAAKPPYVSRGGEKLAKALATFPIALSDRICLDAGISTGGFTDCLLQAGASKVYGIDVGYGQVDWKIRTDPRVLLRERTNIRNLQPTDLYGSDDVWPDLAVADLSFISLTKVLLTLGQLLRSPRELILLVKPQFEVGREKVGKGGVVRDRKDHVTAIAQVLESAQGLGWHGQGLTWSPLLGPAGNVEYLLWLSEAETTWAGDRAAIEALTTEAIATLRAGLEHHHHHH
protein production: not failed

SLFVKESHNTSKGPEATWNLNKVHFVYDSSEKTHFKAPVKVNKYIASSHHLSALVTPAGMSYECQAQQTISLASSDPQKTVTMILSAVHIQPFDIISDFVFSEEHKCPVDEQEQLEETLPLILGLILGLVIVITLVIYHIHHKMTANQVQIPRDRSQYKHMG
protein production: failed

MITQRQNDILNLIVELFTQTHEPVGSKALQRTIDSSSATIRNDMAKLEKLGLLEKAHTSSGRMPSPAGFKYFVEHSLRLDSIDEQDIYHVIKAFDFEAFKLEDMLQKASHILSEMTGYTSVILDVEPARQRLTGFDVVQLSNHDALAVMTLDESKPVTVQFAIPRNFLTRDLIAFKAIVEERLLDGSVMDIHYKLRTEIPQIVQKYFVTTDNVLQLFDYVFSELFLETVFVAGKVNSLTYSDLSTYQFLDNEQQVAISLRQSLKEGEMASVQVADSQEAALADVSVLTHKFLIPYRGFGLLSLIGPIDMDYRRSVSLVNIIGKVLAAKLGDYYRYLNSNHYEVH
protein production: failed

RGLRRGTLRIGSFGPTSSMRLLPALLARYRQQYPGIEVHIDEGPDEQVLQWLLERRVDIAFAVLPDPRFVCCPLVEDQMVAVLPAGHRLADRPRVTLAELCGEPFALSGAGSAELVMRLFQAARLQPNIRYRCGQLLSTLDTVARG
protein production: failed

TGPQGPPGPAGPKGAKGETGPQGPPGPAGPKGAKGDSGVPLSYEFTQKVESSNGTAVFGLLSNGFVEVRITGSYSSDVFNIPYNYRPLKAGTQMALFSTSGVGVAKVGEDKITIQGYSRNAQCSGTVLYPHREF
protein production: failed

MAPETLAPDTTGLEVRLRLTDDWFTACDLGALLPGRGVAALLPDGGQVALFRDRDGGLYAIDNRDPFTGAAVLSRGLTGTHQGRPFVASPLLKQRFDLTTGECLDDAAMRVETYRVQAVRAVPAVNAVNPALEHHHHHH
protein production: failed

MEGLQRSTISFRRQGSSGIVFDDRLIAELNKSGNNEQKDESQRDEQPKPMSESSEQVKPIDEKDKLRPIKTGGGAPGGIERSRSNGGGAQRHHRTTGRVSPAVDPPSPRISSCGCCSAFGKNPPGKKVNPRKRPPKRRSR
protein production: failed

MKRLIVVYLLFISLNVLNAWAQKSPADYVNPIIGATTADEMAGSDHGLGKTFPGVCTPFGLVQLSPDTKTGGDNGPGYSWHHSTIEGFSFTHMSGIGWYGDLGNFLVMPTTGELHTFKGTEENPESGYRSRYSHDREVAKVDGYSVMLDDYGIQVELAAASRSGMMRFTYPQSEVSRIQIDLARRIGGTSTEQYVEVVDDYTIKGWMKCTPDGGGWGDGAGQGNYTAYFYCCFDRPLKNFGLWSADIPEGVERKNASNDDPAYHEYIKNAHVFPRKKIAQGKHLGFYTEFSTREGEQALLKCGISFVSIEGARKNLQSDISDWNFDGVRQRARRQWNEALSGVQVEGEEKDKTIFYTSLYHTMIDPRCFSDVDGAYPGADGKVHYADNFIYRTIFSGWDVFRSQFPLQTITNPRLVDDEINSLIQLAELSGKKYFPRWEFLNAYSGCMVGNPAVSVVADAYNKGIRNYDTRKALEYSLNTVRTFGNNEQGYTPDDLSKTLEYAYTDWCVSTMLRDMGREQEAVAFERKAQSYHQVWCDSVKWFRARSADGSWMPWKGRNVHWQGCIESNNYQQGWFVPHDLEGLISLMGKEYFERELVAFFEGADERFMWGDYYNHPNEPDHQVPFMLNYTSRPWLTQYWTRRICRNAYGDTVNGLCGNEDVGQMSAWYILAAMGFHPICPGNNRYELTSPVFRKVILSLDNRYYKGRTFTIIAHHNSPENVYIQSVSLNGKPLNRLWITHEEITKGGVLEFVLGKDPKH
protein production: failed

MIPRVRAPELPQNYPWLNTEQPLSIKQLNGRVVILDFWTYCCINCLHVLPDLKYLEQKYKDSLTVIGVHSAKFDNEQETENIRQAILRYDIEHPVLVDKDFRVWQEYAVRAWPTLMVIDPKGYVIGYVSGEGNRDKLDQLITQVIQEHQGAINFQQLSLTLEKQRQPLITPLAFPGKVLATPSGLFVADSGHHRIVVSDFNGEILHLIGNGKSGLTDGNFQEAQFSAPQGMAFDMENQILYLADTENHALRRVDINQQTVETIAGTGEQSRNIQPHGGVGLETALNSPWDLVNIENSLYIAMAGVHQIWQMDLASGVIKTYAGTGVEACLDASLTESAFAQPSGITNNEQELYIADSEISSIRGVGLVEPQEVRTVCGSGGLFGFGDVDGQGEDVRLQHCLGVEYFQNYLWVADTYNHKIKSVSPHTGNCQTVLGDGLAGLQNGQGKNTRFFEPSGLSAIDSYLYISDTNNHVIRRVDLRTLEVTTMQFNGLCAPDVCIPNNFLEHHHHHH
protein production: failed

MKLIKFVRNVVLFILTAIFLAFMLLVSYCMPHYSAAVISGVEVKRMNENENTPNNKEVKTLARDVYFVQTYDPKDQKSVTVYRNEDTRFSFPFYFKFNSADISALAQSLINQQVEVKYYGWRINLFNMFPNVIFLKPLKESTDISKPIFSWILYALLLMGFFISARSVCTLFKSKAH
protein production: failed

MSLTTSHFIPFPREMVWDWHTRKGAVARLTPPFIPLNPITQAERLADGTTIFSLPAGLKWVARHDLSGFLNGSRFTDVCLTAPVKALANWRHVHNFVDQDGGTLITDSVSTRLPASTLTGMFAYRQTQLIEDLKFLSRTSTLFDGSPLTVAITGSRGLVGRALTAQLQTGGHEVIQLVRKEPKPGKRFWDPLNPASDLLDGADVLVHLAGEPIFGRFNDSHKEAIRESRVLPTKFLAELVAESTQCTTMISASAVGFYGHDRGDEILTEESESGDDFLAEVCRDWEHATAPASDAGKRVAFIRTGVALSGRGGMLPLLKTLFSTGLGGKFGDGTSWFSWIAIDDLTDIYYRAIVDAQISGPINAVAPNPVSNADMTKILATSMHRPAFIQIPSLGPKILLGSQGAEELALASQRTAPAALENLSHTFRYTDIGAAIAHELGYEQLADFAQQQEIEAERKQERAELKAAKKIAKKAPVLEESPTNLEDPEEVEQSILSSILNFRRKRNDLEHHHHHH
protein production: not failed

MQHNELKTPYFMINEDKLIANLEKAKQLKEISGVKLVLALKCFSTWGVFDIIKPYLDGTTSSGPFEVKLGYETFGGETHAYSVGYSEDDVREVADICDKMIFNSQSQLAAYRHIVEGKASIGLRLNPGVSYAGQDLANPARKFSRLGVQADHIKPEVFEGIDGVMFHMNCENKDVDAFIGLLDAISEQFGEYLNKLDWVSMGGGVFFTWPGYDIEKLGLALKAFSEKHGVQMYLEPGEAIITKTTDLVVTVVDIVENVKKTAIVDSATEAHRLDTLIYNEPASILEASDNGEHEYVIGSCSCLAGDQFCVANFDQPLEIGQRLHILDSAGYTMVKLNWFNGLRMPSVYCERSSGEIQKLNEFDYSDFKRSLSQWSVK
protein production: failed

TGFVGEMYGTGDILRSVSIPSETDKPIIVELAVAAMEELVRMAQTGDPLWLSTDNSVEILNEEEYFRTFPRGIGPKPLGLRSEASRQSAVVIMNHINLVEILMDVNQWSCVFSGIVSRALTLEVLSTGVAGNYNGALQVMTAEFQVPSPLVPTRENYFVRYCKQHSDGSWAVVDVSLDSLRPSTPILRTRRRPSGCLIQELPNGYSKVTWIEHMEVDDRSVHNMYKPLVQSGLAFGAKRWVATLERQCERLASSMASNIPGDLSVITSPEGRKSMLKLAERMVMSFCSGVGASTAHAWTTMSTTGSDDVRVMTRKSMV
protein production: failed

MIDNENNVNEPAEEESFAELFEKSNRRTERLRPGSKVDARVLKIGAEWVFLDIGSKGEGVMERKELLDKDGNLTVAEGDTIPVWFVKVERNEMRFTTKVGTGQAGLSALEDAYRAGIPVEGNVEKEIKGGFEIKVGGTVRAFCPYSQISLRRAANPAEFVGRQLLFKVVEFAERGRNIVLSHRAILEEEERQKREALKDTLKEGTTLTGTVTRLMPFGAFVDIGGVEGLIPISEAGWSRVKEIGDVLSVGEQVTALVKRIDWENNKISLSLRDVQADPWEGIAERFPEGSYHTGTVARLAPFGAFVTLAPGIDGLIHISKLGAGKRIAHPREVLKEGDAVEVTVEGVDRESRRLSLALAATKRAAEEEERSIAEFRGKGAAQTKDSMGTFGDILKAQLDDKK
protein production: failed
